The target in assay [1] is human fibroblast activation protein (FAP) on FAP-expressing human WI-38 fibroblasts (human). Description: competition FACS, WI-38 cells, vs Cy5-labeled compound; D: pIC50 ≤6.0.
Assay [2] has as its target T1, Recombinant human FAP (R&D systems, #3715-SE) (human).
T1 sequence: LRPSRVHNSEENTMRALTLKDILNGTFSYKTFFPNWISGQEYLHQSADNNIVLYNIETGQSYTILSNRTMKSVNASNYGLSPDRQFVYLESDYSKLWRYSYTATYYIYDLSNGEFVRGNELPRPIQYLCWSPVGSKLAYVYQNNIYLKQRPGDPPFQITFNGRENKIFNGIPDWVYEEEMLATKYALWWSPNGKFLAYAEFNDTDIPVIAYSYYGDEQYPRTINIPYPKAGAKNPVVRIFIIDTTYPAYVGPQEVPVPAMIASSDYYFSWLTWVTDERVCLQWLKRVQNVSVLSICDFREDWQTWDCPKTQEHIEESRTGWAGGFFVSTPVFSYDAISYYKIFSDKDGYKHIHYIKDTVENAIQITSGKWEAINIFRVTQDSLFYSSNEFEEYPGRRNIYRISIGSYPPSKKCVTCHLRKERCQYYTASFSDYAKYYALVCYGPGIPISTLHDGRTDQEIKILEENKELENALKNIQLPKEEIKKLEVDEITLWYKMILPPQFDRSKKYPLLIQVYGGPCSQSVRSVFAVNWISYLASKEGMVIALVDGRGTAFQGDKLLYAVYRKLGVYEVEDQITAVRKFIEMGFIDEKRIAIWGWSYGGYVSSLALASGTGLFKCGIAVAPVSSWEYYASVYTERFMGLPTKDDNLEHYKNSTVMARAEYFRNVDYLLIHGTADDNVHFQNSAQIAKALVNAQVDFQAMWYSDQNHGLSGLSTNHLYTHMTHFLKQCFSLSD

Assay [3] addresses recombinant human PREP (R&D systems, #4308-SE) (human).
Assay [4] has as its target Recombinant human DPP4 (R&D systems, #9168-SE) (human).
Assay [5] deals with human fibroblast activation protein (FAP) on FAP-expressing human WI-38 fibroblasts (human). Kind of assay: competition FACS, WI-38 cells, vs Cy5-labeled compound; A: pIC50 >8.0.

“DOTA-Ttds-Hci-[Cys(3MeBn)-Pro-Pro-Thr-Gln-Phe-Cys]-Bal-OH (peptide)”: the pIC50 Category (FACS) in assay [1] is < 6 pIC50. For the same substance, in assay [2], the pIC50 Category (Activity) was < 6 pIC50.
Turning to “DOTA-Ttds-Hgl-[Cys(3MeBn)-Pro-Pro-Thr-Gln-Phe-Cys]-Bal-OH (peptide)”, in assay [1], the pIC50 Category (FACS) was < 6 pIC50.
On to “DOTA-Ttds-Nle-[Cys(3MeBn)-Pro-Pro-Thr-Gln-Phe-Cys]-Bal-OH (3BP-3398) (peptide)”, for which the pIC50 (PREP) in assay [3] is < 6 pIC50. For the same substance, the pIC50 (DPP4) in assay [4] was < 6 pIC50.
In the case of “DOTA-Ttds-Nle-[Cys(3MeBn)-Pro-Pro-Thr-Glu-Phe-Cys]-Asp-His-Phe-Arg-Asp-NH2 (3BP-3168) (peptide)”, the pIC50 (PREP) in assay [3] was < 6 pIC50. The pIC50 (DPP4) in assay [4] was < 6 pIC50.
Consider “DOTA-Ttds-Nle-[Cys(3MeBn)-Pro-Pro-Thr-Glu-Phe-Cys]-Asp-NH2 (3BP-3320) (peptide)”, for which the pIC50 (PREP) in assay [3] is < 6 pIC50. In addition, in assay [4], the pIC50 (DPP4) is < 6 pIC50.
Consider “DOTA-Ttds-Nle-[Cys(3MeBn)-Pro-Pro-Thr-Glu-Phe-Cys]-Asp-Pamb-Arg-NH2 (3BP-3321) (peptide)”, for which the pIC50 (PREP) in assay [3] is < 6 pIC50. The pIC50 (DPP4) in assay [4] is < 6 pIC50.
In the case of “DOTA-Ttds-Nle-[Cys(3MeBn)-Pro-Pro-Thr-Glu-Phe-Cys]-NH2 (3BP-3319) (peptide)”, the pIC50 (PREP) in assay [3] worked out at 6.2 pIC50. Besides, the pIC50 (DPP4) in assay [4] is < 6 pIC50.
The matching figures for “H-Met-[Cys(3MeBn)-Pro-Pro-Thr-Glu-Phe-Cys]-Asp-His-Phe-Arg-Asp-Ttds-Lys(Bio)-NH2 (3BP-2881) (peptide)”: < 6 pIC50 and < 6 pIC50.
In the case of “Hex-[Cys(3MeBn)-Pro-4Dfp-Thr-Glu-Phe-Cys]-NH2 (peptide)”, in assay [1], the pIC50 Category (FACS) is < 6 pIC50.
The same measure, in the same setting: to “Hex-[Cys(3MeBn)-Pro-Eay-Thr-Glu-Phe-Cys]-NH2 (peptide)” belongs < 6 pIC50; to “Hex-[Cys(3MeBn)-Pro-Pro-Opc-Glu-Phe-Cys]-NH2 (peptide)”, < 6 pIC50; to “Hex-[Cys(3MeBn)-Pro-Pro-Orn(Ac)-Glu-Phe-Cys]-NH2 (peptide)”, < 6 pIC50.
Turning to “Hex-[Cys(3MeBn)-Pro-Pro-Thr-Gln-Phe-Cys]-Bhk(DOTA)-OH (3BP-3397) (peptide)”, in assay [3], the pIC50 (PREP) is < 6 pIC50. Further, the pIC50 (DPP4) in assay [4] was < 6 pIC50.
On to “Hex-[Cys(3MeBn)-Pro-Pro-Thr-Glu-Bip-Cys]-NH2 (peptide)”, for which, in assay [1], the pIC50 Category (FACS) is < 6 pIC50. Further, the pIC50 Category (Activity) in assay [2] is < 6 pIC50.
Regarding “Hex-[Cys(3MeBn)-Pro-Pro-Thr-Glu-Nmf-Cys]-NH2 (peptide)”, the pIC50 Category (FACS) in assay [1] is < 6 pIC50.
For the substance “Hex-[Cys(3MeBn)-Pro-Pro-Thr-Glu-Nphe-Cys]-NH2 (peptide)”, the pIC50 Category (FACS) in assay [1] is < 6 pIC50. Besides, the pIC50 Category (Activity) in assay [2] is < 6 pIC50.
As for “Hex-[Cys(3MeBn)-Pro-Pro-Thr-Glu-Phe-Cys]-Asp-His-Nmf-Arg-Ttds-Lys(DOTA)-NH2 (3BP-3275) (peptide)”, in assay [3], the pIC50 (PREP) is < 6 pIC50. For the same substance, the pIC50 (DPP4) in assay [4] is < 6 pIC50.
Turning to “Hex-[Cys(3MeBn)-Pro-Pro-Thr-Glu-Phe-Cys]-Asp-His-Nmf-Arg-Ttds-Lys(DOTA)-NH2 (peptide)”, the pIC50 Category (Activity) in assay [2] was > 8 pIC50. Also, in assay [5], the pIC50 Category (FACS) was > 8 pIC50.
Regarding “Hex-[Cys(3MeBn)-Pro-Pro-Thr-Glu-Phe-Cys]-Asp-His-Phe-Arg-Asp-Ttds-Lys(DOTA)-NH2 (3BP-3105) (peptide)”, in assay [3], the pIC50 (PREP) was < 6 pIC50. Also, the pIC50 (DPP4) in assay [4] was < 6 pIC50.
As to “Hex-[Cys(3MeBn)-Pro-Pro-Thr-Glu-Phe-Cys]-Asp-His-Phe-Arg-Asp-Ttds-Lys(DOTA)-NH2 (peptide)”, in assay [2], the pIC50 Category (Activity) was > 8 pIC50. Moreover, the pIC50 Category (FACS) in assay [5] was > 8 pIC50.
Regarding “Hex-[Cys(3MeBn)-Pro-Pro-Thr-Glu-Phe-Cys]-Asp-His-Ppa-arg-Ttds-Lys(DOTA)-NH2 (peptide)”, in assay [2], the pIC50 Category (Activity) is > 8 pIC50. The pIC50 Category (FACS) in assay [5] was > 8 pIC50.
Consider “Hex-[Cys(3MeBn)-Pro-Pro-Thr-Glu-Phe-Cys]-Asp-His-phe-Arg-Ttds-Lys(DOTA)-NH2 (peptide)”, for which, in assay [2], the pIC50 Category (Activity) was > 8 pIC50. In addition, in assay [5], the pIC50 Category (FACS) was > 8 pIC50.
Turning to “Hex-[Cys(3MeBn)-Pro-Pro-Thr-Glu-Phe-Cys]-Asp-Mamb-Arg-NH2 (peptide)”, in assay [2], the pIC50 Category (Activity) is > 8 pIC50. Besides, the pIC50 Category (FACS) in assay [5] is > 8 pIC50.
On to “Hex-[Cys(3MeBn)-Pro-Pro-Thr-Glu-Phe-Cys]-Asp-Pamb-Arg-NH2 (peptide)”, for which the pIC50 Category (Activity) in assay [2] is > 8 pIC50. In addition, the pIC50 Category (FACS) in assay [5] was > 8 pIC50.
For “Hex-[Cys(3MeBn)-Pro-Pro-Thr-Glu-Phe-Cys]-Asp-Ttds-Lys(DOTA)-NH2 (peptide)”, in assay [2], the pIC50 Category (Activity) was > 8 pIC50. Besides, the pIC50 Category (FACS) in assay [5] is > 8 pIC50.
As for “Hex-[Cys(3MeBn)-Pro-Pro-Thr-Glu-Phe-Pen]-NH2 (peptide)”, the pIC50 Category (FACS) in assay [1] is < 6 pIC50.
The same measure, in the same setting: to “Hex-[Cys(3MeBn)-Pro-Pro-Thr-Glu-Tic-Cys]-NH2 (peptide)” belongs < 6 pIC50.
In the case of “Hex-[Cys(3MeBn)-Pro-Pro-Thr-Moo-Phe-Cys]-NH2 (peptide)”, the pIC50 Category (FACS) in assay [1] is < 6 pIC50. For the same substance, the pIC50 Category (Activity) in assay [2] is < 6 pIC50.
On to “Hex-[Cys(3MeBn)-Pro-Pro-Thr-Nme-Phe-Cys]-NH2 (peptide)”, for which the pIC50 Category (FACS) in assay [1] is < 6 pIC50. In addition, the pIC50 Category (Activity) in assay [2] is < 6 pIC50.
As to “Hex-[Cys(3MeBn)-Pro-Tap-Thr-Glu-Phe-Cys]-NH2 (peptide)”, the pIC50 Category (FACS) in assay [1] was < 6 pIC50.
Consider “Hex-[Cys(tMeBn(DOTA-AET))-Nmg-Pro-Thr-Gln-Phe-Cys]-OH (peptide)”, for which the pIC50 Category (Activity) in assay [2] was > 8 pIC50. The pIC50 Category (FACS) in assay [5] is > 8 pIC50.
On to “Hex-[Cys(tMeBn(DOTA-AET))-Pro-Hyp-Thr-Gln-Phe-Cys]-OH (peptide)”, for which the pIC50 Category (Activity) in assay [2] was > 8 pIC50. Besides, in assay [5], the pIC50 Category (FACS) is > 8 pIC50.
Take “Hex-[Cys(tMeBn(DOTA-AET))-Pro-Pro-Thr-Gln-1Ni-Cys]-OH (peptide)”: the pIC50 Category (Activity) in assay [2] is > 8 pIC50. In assay [5], the pIC50 Category (FACS) is > 8 pIC50.
Take “Hex-[Cys(tMeBn(DOTA-AET))-Pro-Pro-Thr-Gln-Mpa-Cys]-OH (peptide)”: the pIC50 Category (Activity) in assay [2] is > 8 pIC50. For the same substance, the pIC50 Category (FACS) in assay [5] is > 8 pIC50.
For “Hex-[Cys(tMeBn(DOTA-AET))-Pro-Pro-Thr-Gln-Otf-Cys]-OH (peptide)”, the pIC50 Category (Activity) in assay [2] is > 8 pIC50. Also, in assay [5], the pIC50 Category (FACS) is > 8 pIC50.
For the substance “Hex-[Cys(tMeBn(DOTA-AET))-Pro-Pro-Thr-Gln-Phe-AET] (peptide)”, the pIC50 Category (Activity) in assay [2] was > 8 pIC50. For the same substance, the pIC50 Category (FACS) in assay [5] is > 8 pIC50.
Regarding “Hex-[Cys(tMeBn(DOTA-AET))-Pro-Pro-Thr-Gln-Phe-Cys]-Bal-OH (peptide)”, in assay [2], the pIC50 Category (Activity) is > 8 pIC50. For the same substance, the pIC50 Category (FACS) in assay [5] was > 8 pIC50.
On to “Hex-[Cys(tMeBn(DOTA-AET))-Pro-Pro-Thr-Gln-Phe-Cys]-Bhf-OH (peptide)”, for which the pIC50 Category (Activity) in assay [2] was > 8 pIC50. In assay [5], the pIC50 Category (FACS) was > 8 pIC50.
Take “Hex-[Cys(tMeBn(DOTA-AET))-Pro-Pro-Thr-Gln-Phe-Cys]-Gab-OH (peptide)”: the pIC50 Category (Activity) in assay [2] is > 8 pIC50. Further, the pIC50 Category (FACS) in assay [5] is > 8 pIC50.
For the substance “Hex-[Cys(tMeBn(DOTA-AET))-Pro-Pro-Thr-Gln-Phe-Cys]-Gly-OH (peptide)”, in assay [2], the pIC50 Category (Activity) is > 8 pIC50. Also, the pIC50 Category (FACS) in assay [5] was > 8 pIC50.
“Hex-[Cys(tMeBn(DOTA-AET))-Pro-Pro-Thr-Gln-Phe-Cys]-Nmg-OH (peptide)”: the pIC50 Category (Activity) in assay [2] was > 8 pIC50. In addition, the pIC50 Category (FACS) in assay [5] is > 8 pIC50.
As to “Hex-[Cys(tMeBn(InDOTA-AET))-Pro-Pro-Thr-Gln-Phe-AET] (peptide)”, in assay [2], the pIC50 Category (Activity) was > 8 pIC50. Further, the pIC50 Category (FACS) in assay [5] was > 8 pIC50.
Consider “[3MeBn-Spa-Pro-Pro-Thr-Gln-Phe-Cys]-Asp-NH2 (3BP-3419) (peptide)”, for which, in assay [3], the pIC50 (PREP) was < 6 pIC50. Moreover, in assay [4], the pIC50 (DPP4) is < 6 pIC50.

The values above are taken from patent US20220315554A1, “COMPOUNDS COMPRISING A […] LIGAND AND USE THEREOF” (priority 2019, published 2022).
